B1: bispecific antibody CTLA4-E-HN (bispecific antibody)
heavy: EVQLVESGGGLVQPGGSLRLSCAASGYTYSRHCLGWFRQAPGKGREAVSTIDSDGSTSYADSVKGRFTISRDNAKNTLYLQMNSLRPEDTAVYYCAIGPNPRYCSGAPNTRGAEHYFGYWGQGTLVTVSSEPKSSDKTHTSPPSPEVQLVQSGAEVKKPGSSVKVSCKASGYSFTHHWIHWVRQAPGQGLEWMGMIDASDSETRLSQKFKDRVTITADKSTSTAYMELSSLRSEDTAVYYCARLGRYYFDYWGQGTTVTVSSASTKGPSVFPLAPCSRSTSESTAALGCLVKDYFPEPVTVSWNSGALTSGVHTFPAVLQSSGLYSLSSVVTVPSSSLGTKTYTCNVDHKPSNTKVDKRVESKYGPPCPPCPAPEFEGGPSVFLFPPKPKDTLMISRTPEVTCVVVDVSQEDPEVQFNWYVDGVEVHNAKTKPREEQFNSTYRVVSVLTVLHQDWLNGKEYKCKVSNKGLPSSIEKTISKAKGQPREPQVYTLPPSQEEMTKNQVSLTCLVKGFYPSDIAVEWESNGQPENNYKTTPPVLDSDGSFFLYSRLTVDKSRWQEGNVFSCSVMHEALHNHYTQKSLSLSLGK
light: EIVLTQSPATLSLSPGERATLSCRASENVGTYISWYQQKPGQAPRLLIYGASNRYTGIPARFSGSGSGTDFTLTISSLEPEDFAVYYCGESYGHLYTFGGGTKVEIKRTVAAPSVFIFPPSDEQLKSGTASVVCLLNNFYPREAKVQWKVDNALQSGNSQESVTEQDSKDSTYSLSSTLTLSKADYEKHKVYACEVTHQGLSSPVTKSFNRGEC
B2: bispecific antibody CTLA4-E-HC (bispecific antibody)
heavy: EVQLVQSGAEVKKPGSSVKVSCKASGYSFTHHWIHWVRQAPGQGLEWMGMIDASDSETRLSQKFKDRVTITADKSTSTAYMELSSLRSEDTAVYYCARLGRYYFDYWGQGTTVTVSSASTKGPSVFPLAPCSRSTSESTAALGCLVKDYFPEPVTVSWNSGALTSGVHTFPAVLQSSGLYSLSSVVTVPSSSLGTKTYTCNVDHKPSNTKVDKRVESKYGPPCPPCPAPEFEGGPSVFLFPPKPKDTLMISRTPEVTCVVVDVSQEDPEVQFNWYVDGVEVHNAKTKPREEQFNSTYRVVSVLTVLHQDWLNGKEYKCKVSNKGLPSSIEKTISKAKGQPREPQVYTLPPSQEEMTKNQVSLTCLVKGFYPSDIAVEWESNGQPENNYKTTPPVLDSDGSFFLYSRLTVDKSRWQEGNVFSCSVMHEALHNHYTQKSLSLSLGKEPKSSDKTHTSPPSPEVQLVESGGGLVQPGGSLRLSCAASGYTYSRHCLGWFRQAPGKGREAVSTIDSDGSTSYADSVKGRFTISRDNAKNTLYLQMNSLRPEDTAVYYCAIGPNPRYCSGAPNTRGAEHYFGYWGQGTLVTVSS
light: B1 light
B3: anti-CD47 monoclonal antibody (mAb) (antibody, V domains shown)
VH: EVQLVQSGAEVKKPGSSVKVSCKASGYSFTHHWIHWVRQAPGQGLEWMGMIDASDSETRLSQKFKDRVTITADKSTSTAYMELSSLRSEDTAVYYCARLGRYYFDYWGQGTTVTVSS
VL: EIVLTQSPATLSLSPGERATLSCRASENVGTYISWYQQKPGQAPRLLIYGASNRYTGIPARFSGSGSGTDFTLTISSLEPEDFAVYYCGESYGHLYTFGGGTKVEIKR
B4: bispecific antibody CTLA4-G15-HC (bispecific antibody)
heavy: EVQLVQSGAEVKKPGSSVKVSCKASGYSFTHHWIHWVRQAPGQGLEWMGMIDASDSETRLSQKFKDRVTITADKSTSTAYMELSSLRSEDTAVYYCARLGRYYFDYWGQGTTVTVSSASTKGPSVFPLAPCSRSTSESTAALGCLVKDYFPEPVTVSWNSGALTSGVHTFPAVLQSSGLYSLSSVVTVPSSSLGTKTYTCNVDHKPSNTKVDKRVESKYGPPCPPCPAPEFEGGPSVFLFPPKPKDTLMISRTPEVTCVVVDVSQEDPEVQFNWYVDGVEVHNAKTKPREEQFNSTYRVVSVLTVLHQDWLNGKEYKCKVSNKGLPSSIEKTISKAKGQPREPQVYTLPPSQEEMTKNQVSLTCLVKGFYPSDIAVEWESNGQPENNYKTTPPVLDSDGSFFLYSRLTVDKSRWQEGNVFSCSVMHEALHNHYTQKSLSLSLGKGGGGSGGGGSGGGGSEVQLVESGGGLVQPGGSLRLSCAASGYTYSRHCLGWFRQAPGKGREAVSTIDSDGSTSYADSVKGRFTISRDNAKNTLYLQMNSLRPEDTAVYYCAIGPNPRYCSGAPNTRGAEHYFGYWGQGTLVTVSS
light: B1 light
B5: bispecific antibody CTLA4-G15-HN (bispecific antibody)
heavy: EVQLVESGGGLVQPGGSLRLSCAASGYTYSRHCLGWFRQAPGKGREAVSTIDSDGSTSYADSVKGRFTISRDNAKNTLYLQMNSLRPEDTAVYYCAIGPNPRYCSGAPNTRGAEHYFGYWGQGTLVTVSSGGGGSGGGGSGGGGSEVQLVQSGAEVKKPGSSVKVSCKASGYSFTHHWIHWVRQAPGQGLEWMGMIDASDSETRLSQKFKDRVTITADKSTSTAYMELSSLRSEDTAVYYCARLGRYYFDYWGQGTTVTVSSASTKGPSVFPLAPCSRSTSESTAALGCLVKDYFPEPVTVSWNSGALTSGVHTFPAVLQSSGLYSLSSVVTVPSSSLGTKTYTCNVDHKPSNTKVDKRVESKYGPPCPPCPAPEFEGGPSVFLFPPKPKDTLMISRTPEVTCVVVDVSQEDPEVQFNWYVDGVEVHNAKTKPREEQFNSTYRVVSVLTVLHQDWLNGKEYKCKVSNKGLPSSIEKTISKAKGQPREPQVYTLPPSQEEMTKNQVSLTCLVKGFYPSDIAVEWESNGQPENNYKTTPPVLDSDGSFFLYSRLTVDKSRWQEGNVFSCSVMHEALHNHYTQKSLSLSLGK
light: B1 light
B6: bispecific antibody CTLA4-G9-LN (bispecific antibody)
light: EVQLVESGGGLVQPGGSLRLSCAASGYTYSRHCLGWFRQAPGKGREAVSTIDSDGSTSYADSVKGRFTISRDNAKNTLYLQMNSLRPEDTAVYYCAIGPNPRYCSGAPNTRGAEHYFGYWGQGTLVTVSSGGGGSGGGSEIVLTQSPATLSLSPGERATLSCRASENVGTYISWYQQKPGQAPRLLIYGASNRYTGIPARFSGSGSGTDFTLTISSLEPEDFAVYYCGESYGHLYTFGGGTKVEIKRTVAAPSVFIFPPSDEQLKSGTASVVCLLNNFYPREAKVQWKVDNALQSGNSQESVTEQDSKDSTYSLSSTLTLSKADYEKHKVYACEVTHQGLSSPVTKSFNRGEC
heavy: not shown

These binders were tested against CD47 (UniProt Q08722 19-323) (assay: FACS).
Chain of CD47 (Q08722 19-323): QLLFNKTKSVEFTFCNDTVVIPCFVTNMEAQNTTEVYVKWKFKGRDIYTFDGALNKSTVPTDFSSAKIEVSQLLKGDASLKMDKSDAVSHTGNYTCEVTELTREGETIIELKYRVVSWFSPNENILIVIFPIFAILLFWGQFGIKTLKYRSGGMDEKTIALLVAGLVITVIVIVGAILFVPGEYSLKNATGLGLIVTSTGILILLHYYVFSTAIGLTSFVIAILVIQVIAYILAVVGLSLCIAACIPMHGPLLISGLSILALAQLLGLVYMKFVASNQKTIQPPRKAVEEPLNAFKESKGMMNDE

With B1 as the binder, how does the EC50 read?
The EC50 was 2.3 nM.

B2 was tested. Which EC50 did it give?
The EC50 was 1.57 nM.

Which EC50 does the source give for B3 here?
The EC50 was 0.905 nM.

For B4, which EC50 is on record?
The EC50 was 1.63 nM.

With B5 as the binder, how does the EC50 read?
The EC50 was 1.81 nM.

What follows are binders tested against human CTLA-4 (human, UniProt P16410 36-223) (assay: FACS binding CHO-K1 cells expressing human CTLA-4).
Chain of human CTLA-4 (P16410 36-223): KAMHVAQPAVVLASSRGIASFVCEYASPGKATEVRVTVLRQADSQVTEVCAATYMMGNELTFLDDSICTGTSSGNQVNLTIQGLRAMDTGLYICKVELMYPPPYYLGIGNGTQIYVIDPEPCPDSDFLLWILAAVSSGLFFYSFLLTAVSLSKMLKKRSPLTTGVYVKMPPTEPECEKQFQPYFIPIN

How did the EC50 turn out when B1 was run?
Its EC50 is 3.61 nM.

B2 was tested. Which EC50 did it give?
The EC50 was 7.05 nM.

Which EC50 does the source give for B3 here?
The EC50 was about 3.2 nM.

B4 was tested. Which EC50 did it give?
The EC50 was 6.22 nM.

How did the EC50 turn out when B6 was run?
The EC50 was 3.59 nM.

How did the EC50 turn out when B5 was run?
Its EC50 is 2.93 nM.
